Results: patent US20230159662A1 (Kyowa Kirin, published 2023)

Biological target: human CD16a (Val type) stably expressed on NK-92 cells (NK-92/CD16 transfectant) (human, UniProt P08637 17-254)
Experiment: cell-based or functional assay

Sequence of human CD16a (Val type) stably expressed on NK-92 cells (NK-92/CD16 transfectant) (P08637 17-254 F176V): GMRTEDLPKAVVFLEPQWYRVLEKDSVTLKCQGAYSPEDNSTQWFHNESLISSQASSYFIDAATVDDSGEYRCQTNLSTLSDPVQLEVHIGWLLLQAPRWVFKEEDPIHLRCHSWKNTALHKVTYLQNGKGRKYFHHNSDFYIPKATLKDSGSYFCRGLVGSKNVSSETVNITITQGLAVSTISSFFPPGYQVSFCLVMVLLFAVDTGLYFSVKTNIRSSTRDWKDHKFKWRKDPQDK

relative ADCC activity (AAA = 100)	Binder
100 relative, AAA at 0.1 µg/mL = 100	human IgG1 anti-human CCR4 antibody (KM2160), S298A/E333A/K334A (AAA) (antibody) heavy: EVQLVESGGDLMKPGGSLKISCAASGFIFSNYGMSWVRQTPDMRLEWVATISSASTYSYYPDSVKGRFTISRDNAENSLYLQMNSLRSEDTGIYYCGRHSDGNFAFGYWGRGTLVTVSAASTKGPSVFPLAPSSKSTSGGTAALGCLVKDYFPEPVTVSWNSGALTSGVHTFPAVLQSSGLYSLSSVVTVPSSSLGTQTYICNVNHKPSNTKVDKKVEPKSCDKTHTCPPCPAPELLGGPSVFLFPPKPKDTLMISRTPEVTCVVVDVSHEDPEVKFNWYVDGVEVHNAKTKPREEQYNATYRVVSVLTVLHQDWLNGKEYKCKVSNKALPAPIAATISKAKGQPREPQVYTLPPSRDELTKNQVSLTCLVKGFYPSDIAVEWESNGQPENNYKTTPPVLDSDGSFFLYSKLTVDKSRWQQGNVFSCSVMHEALHNHYTQKSLSLSPGK light: DVLMTQTPLSLPVSLGDQASISCRSSRNIVHINGDTYLEWYLQRPGQSPKLLIYKVSNRFSGVPDRFSGSGSGTDFTLKISRVEAEDLGVYYCFQGSLLPWTFGGGTRLEIRRTVAAPSVFIFPPSDEQLKSGTASVVCLLNNFYPREAKVQWKVDNALQSGNSQESVTEQDSKDSTYSLSSTLTLSKADYEKHKVYACEVTHQGLSSPVTKSFNRGEC
161 relative, AAA at 0.1 µg/mL = 100	human IgG1 anti-human CCR4 antibody (KM2160), S239D/A330F (antibody) heavy: not shown light: DVLMTQTPLSLPVSLGDQASISCRSSRNIVHINGDTYLEWYLQRPGQSPKLLIYKVSNRFSGVPDRFSGSGSGTDFTLKISRVEAEDLGVYYCFQGSLLPWTFGGGTRLEIRRTVAAPSVFIFPPSDEQLKSGTASVVCLLNNFYPREAKVQWKVDNALQSGNSQESVTEQDSKDSTYSLSSTLTLSKADYEKHKVYACEVTHQGLSSPVTKSFNRGEC
179 relative, AAA at 0.1 µg/mL = 100	human IgG1 anti-human CCR4 antibody (KM2160), S239D/K326T (antibody) heavy: not shown light: DVLMTQTPLSLPVSLGDQASISCRSSRNIVHINGDTYLEWYLQRPGQSPKLLIYKVSNRFSGVPDRFSGSGSGTDFTLKISRVEAEDLGVYYCFQGSLLPWTFGGGTRLEIRRTVAAPSVFIFPPSDEQLKSGTASVVCLLNNFYPREAKVQWKVDNALQSGNSQESVTEQDSKDSTYSLSSTLTLSKADYEKHKVYACEVTHQGLSSPVTKSFNRGEC
164 relative, AAA at 0.1 µg/mL = 100	human IgG1 anti-human CCR4 antibody (KM2160), S298A/E333A/K334A (AAA)/H268E (antibody) heavy: EVQLVESGGDLMKPGGSLKISCAASGFIFSNYGMSWVRQTPDMRLEWVATISSASTYSYYPDSVKGRFTISRDNAENSLYLQMNSLRSEDTGIYYCGRHSDGNFAFGYWGRGTLVTVSAASTKGPSVFPLAPSSKSTSGGTAALGCLVKDYFPEPVTVSWNSGALTSGVHTFPAVLQSSGLYSLSSVVTVPSSSLGTQTYICNVNHKPSNTKVDKKVEPKSCDKTHTCPPCPAPELLGGPSVFLFPPKPKDTLMISRTPEVTCVVVDVSEEDPEVKFNWYVDGVEVHNAKTKPREEQYNATYRVVSVLTVLHQDWLNGKEYKCKVSNKALPAPIAATISKAKGQPREPQVYTLPPSRDELTKNQVSLTCLVKGFYPSDIAVEWESNGQPENNYKTTPPVLDSDGSFFLYSKLTVDKSRWQQGNVFSCSVMHEALHNHYTQKSLSLSPGK light: DVLMTQTPLSLPVSLGDQASISCRSSRNIVHINGDTYLEWYLQRPGQSPKLLIYKVSNRFSGVPDRFSGSGSGTDFTLKISRVEAEDLGVYYCFQGSLLPWTFGGGTRLEIRRTVAAPSVFIFPPSDEQLKSGTASVVCLLNNFYPREAKVQWKVDNALQSGNSQESVTEQDSKDSTYSLSSTLTLSKADYEKHKVYACEVTHQGLSSPVTKSFNRGEC
125 relative, AAA at 0.1 µg/mL = 100	human IgG1 anti-human CCR4 antibody (KM2160), S298A/E333A/K334A (AAA)/R293P (antibody) heavy: EVQLVESGGDLMKPGGSLKISCAASGFIFSNYGMSWVRQTPDMRLEWVATISSASTYSYYPDSVKGRFTISRDNAENSLYLQMNSLRSEDTGIYYCGRHSDGNFAFGYWGRGTLVTVSAASTKGPSVFPLAPSSKSTSGGTAALGCLVKDYFPEPVTVSWNSGALTSGVHTFPAVLQSSGLYSLSSVVTVPSSSLGTQTYICNVNHKPSNTKVDKKVEPKSCDKTHTCPPCPAPELLGGPSVFLFPPKPKDTLMISRTPEVTCVVVDVSHEDPEVKFNWYVDGVEVHNAKTKPPEEQYNATYRVVSVLTVLHQDWLNGKEYKCKVSNKALPAPIAATISKAKGQPREPQVYTLPPSRDELTKNQVSLTCLVKGFYPSDIAVEWESNGQPENNYKTTPPVLDSDGSFFLYSKLTVDKSRWQQGNVFSCSVMHEALHNHYTQKSLSLSPGK light: DVLMTQTPLSLPVSLGDQASISCRSSRNIVHINGDTYLEWYLQRPGQSPKLLIYKVSNRFSGVPDRFSGSGSGTDFTLKISRVEAEDLGVYYCFQGSLLPWTFGGGTRLEIRRTVAAPSVFIFPPSDEQLKSGTASVVCLLNNFYPREAKVQWKVDNALQSGNSQESVTEQDSKDSTYSLSSTLTLSKADYEKHKVYACEVTHQGLSSPVTKSFNRGEC
160 relative, AAA at 0.1 µg/mL = 100	human IgG1 anti-human CCR4 antibody (KM2160), S298A/E333A/K334A (AAA)/P247L (antibody) heavy: EVQLVESGGDLMKPGGSLKISCAASGFIFSNYGMSWVRQTPDMRLEWVATISSASTYSYYPDSVKGRFTISRDNAENSLYLQMNSLRSEDTGIYYCGRHSDGNFAFGYWGRGTLVTVSAASTKGPSVFPLAPSSKSTSGGTAALGCLVKDYFPEPVTVSWNSGALTSGVHTFPAVLQSSGLYSLSSVVTVPSSSLGTQTYICNVNHKPSNTKVDKKVEPKSCDKTHTCPPCPAPELLGGPSVFLFPPKLKDTLMISRTPEVTCVVVDVSHEDPEVKFNWYVDGVEVHNAKTKPREEQYNATYRVVSVLTVLHQDWLNGKEYKCKVSNKALPAPIAATISKAKGQPREPQVYTLPPSRDELTKNQVSLTCLVKGFYPSDIAVEWESNGQPENNYKTTPPVLDSDGSFFLYSKLTVDKSRWQQGNVFSCSVMHEALHNHYTQKSLSLSPGK light: DVLMTQTPLSLPVSLGDQASISCRSSRNIVHINGDTYLEWYLQRPGQSPKLLIYKVSNRFSGVPDRFSGSGSGTDFTLKISRVEAEDLGVYYCFQGSLLPWTFGGGTRLEIRRTVAAPSVFIFPPSDEQLKSGTASVVCLLNNFYPREAKVQWKVDNALQSGNSQESVTEQDSKDSTYSLSSTLTLSKADYEKHKVYACEVTHQGLSSPVTKSFNRGEC
136 relative, AAA at 0.1 µg/mL = 100	human IgG1 anti-human CCR4 antibody (KM2160), S298A/E333A/K334A (AAA)/K326T (antibody) heavy: EVQLVESGGDLMKPGGSLKISCAASGFIFSNYGMSWVRQTPDMRLEWVATISSASTYSYYPDSVKGRFTISRDNAENSLYLQMNSLRSEDTGIYYCGRHSDGNFAFGYWGRGTLVTVSAASTKGPSVFPLAPSSKSTSGGTAALGCLVKDYFPEPVTVSWNSGALTSGVHTFPAVLQSSGLYSLSSVVTVPSSSLGTQTYICNVNHKPSNTKVDKKVEPKSCDKTHTCPPCPAPELLGGPSVFLFPPKPKDTLMISRTPEVTCVVVDVSHEDPEVKFNWYVDGVEVHNAKTKPREEQYNATYRVVSVLTVLHQDWLNGKEYKCKVSNTALPAPIAATISKAKGQPREPQVYTLPPSRDELTKNQVSLTCLVKGFYPSDIAVEWESNGQPENNYKTTPPVLDSDGSFFLYSKLTVDKSRWQQGNVFSCSVMHEALHNHYTQKSLSLSPGK light: DVLMTQTPLSLPVSLGDQASISCRSSRNIVHINGDTYLEWYLQRPGQSPKLLIYKVSNRFSGVPDRFSGSGSGTDFTLKISRVEAEDLGVYYCFQGSLLPWTFGGGTRLEIRRTVAAPSVFIFPPSDEQLKSGTASVVCLLNNFYPREAKVQWKVDNALQSGNSQESVTEQDSKDSTYSLSSTLTLSKADYEKHKVYACEVTHQGLSSPVTKSFNRGEC
201 relative, AAA at 0.1 µg/mL = 100	human IgG1 anti-human CCR4 antibody (KM2160), S239D/I332E (DE) (antibody) heavy: not shown light: DVLMTQTPLSLPVSLGDQASISCRSSRNIVHINGDTYLEWYLQRPGQSPKLLIYKVSNRFSGVPDRFSGSGSGTDFTLKISRVEAEDLGVYYCFQGSLLPWTFGGGTRLEIRRTVAAPSVFIFPPSDEQLKSGTASVVCLLNNFYPREAKVQWKVDNALQSGNSQESVTEQDSKDSTYSLSSTLTLSKADYEKHKVYACEVTHQGLSSPVTKSFNRGEC
